Data as given in patent US20240352132A1 (JIANGSU HENGRUI PHARMACEUTICALS, published 2024).
Each block holds one binder with its values, some of them ahead of it.

Experiments:
[1] = target: T1, human EGFR protein extracellular domain with the His tag (human, UniProt P00533 25-645); experiment: flow cytometry on EGFR CHO-S stably transfected cells, R-PE goat anti-human (H+L) detection
T1 construct: also called EGFR-His
Source text: (§1) The binding activity of antigen-binding molecules specifically binding to HGFR and EGFR to cells was detected using a flow cytometer. EGFR CHO-S stably transfected cell strain, HGFR CHO-S stably transfected cell strain, and H1975-HGF or MKN-45 tumor cell strain at 1×10⁶ cells/mL were blocked with 1% BSA PBS buffer, followed by the addition of diluted antibody samples at different concentrations (C25 was a negative control, which was an IgGI antibody protein of irrelevant targets, the same applied hereinafter), and the mixtures were incubated for 1 h. After the mixtures were washed twice, R-PE-goat anti-human (H+L) antibody (Invitrogen, CAT #H10104) was added, and the mixtures were incubated for 0.5 h. After the plate was washed twice, fluorescence signals were read using a flow cytometer.

[2] = target: T1, human EGFR protein extracellular domain …; experiment: competition ELISA, blocks EGF-mFc on captured EGFR-His
Protocol: 1 μg/mL rabbit anti-His antibody (GenScript, A01857) was coated overnight at 4° C. and then blocked. After the plate was washed, 2 μg/mL EGFR-His (SEQ ID NO: 42) was added, and the plate was incubated for 1 h. […] After the plate was washed, a tetramethylbenzidine solution was added for color development. Finally, a stop solution was added. OD450 values were measured on a microplate reader.

[3] = target: T1, human EGFR protein extracellular domain …; experiment: SPR Biacore T200, antibody captured on Protein A, antigen in flow, 1:1 fit
Protocol: (§2) The affinity of the test molecule for human EGFR (SEQ ID NO: 42) or human HGFR protein (SEQ ID NO: 43) was determined by Biacore T200 (GE) as follows:
(§3) The antibody molecules were affinity-captured on a Protein A biosensor chip of which antigens flowed through the surface for 180 s, and then the antibody molecules were dissociated for 600 s. The reaction signals were detected in real time using a Biacore T200 instrument to obtain association and dissociation curves. After dissociation was completed for each cycle, the biosensor chip was washed with 10 mM Gly-HCl (pH 1.5) for regeneration. Data were fitted using a 1:1 model, and affinity values of the test molecules were obtained. In this example, the positive control MCLA was a bispecific antibody specifically binding to HGFR and EGFR (see PB8532 in WO2019031965 for specific sequences).

[4] = target: T2, HGFR protein extracellular domain with the His tag (human, UniProt P08581 25-932); experiment: as above
T2 construct: also called HGFR-His; human HGFR
Protocol: as §2, §3

[5] = target: T2, HGFR protein extracellular domain with …; experiment: competition ELISA, blocks bio-HGF-His on coated HGFR-His
Protocol: The ability of the antibodies to block HGF/HGFR was tested by ELISA. 5 μg/mL HGFR-His (for the sequence, see SEQ ID NO: 43) was coated overnight at 4° C. and then blocked. […] After the plate was washed, horseradish peroxidase-streptavidin (Jackson, 016-030-084) was added, and the plate was incubated for 1 h. After the plate was washed, a tetramethylbenzidine solution was added for color development. Finally, a stop solution was added. OD450 values were measured on a microplate reader.

[6] = target: T2, HGFR protein extracellular domain with …; experiment: flow cytometry on HGFR CHO-S stably transfected cells, R-PE goat anti-human (H+L) detection
Source text: as §1

[7] = target: T2, HGFR protein extracellular domain with …; experiment: SPR Biacore T200
Protocol: as §2, §3

EC50 (read off the curve) [1]: ~2 nM
IC50 [2]: 2.37 µg/mL
Kd [3]: 7.29 nM
koff [3]: 0.00103 s⁻¹
kon [3]: 142000 M⁻¹ s⁻¹
Kd [4]: 2.26 nM
koff [4]: 0.000124 s⁻¹
kon [4]: 54800 M⁻¹ s⁻¹
IC50 [5]: 0.25 µg/mL
B1: EM1 (bispecific antibody, human IgG1, kappa)
heavy 1: not shown
light 1: DIQLTQSPSSLSASVGDRVTITCRASQDISSALVWYQQKPGKAPKLLIYDASSLESGVPSRFSGSESGTDFTLTISSLQPEDFATYYCQQFNSYPLTFGGGTKVEIKGGGGSGGGGDIVLTQSPDSLAVSLGERATINCRADKSVSTSTYNYLHWYQQKPGQPPKLLIYRGSFLATGVPDRFSGSGSGTDFTLTISSLQAEDVAVYYCQHSRDLPPTFGQGTKLEIKRTVAAPSVFIFPPSDEQLKSGTASVVCLLNNFYPREAKVQWKVDNALQSGNSQESVTEQDSKDSTYSLSSTLTLSKADYEKHKVYACEVTHQGLSSPVTKSFNRGEC
heavy 2: EVQLVESGGGLVQPGGSLRLSCAASGYTFTSYWLHWVRQAPGKGLEWVGMIDPSNSDTRFNPNFKDRFTISADTSKNTAYLQMNSLRAEDTAVYYCATYRSYVTPLDYWGQGTLVTVSSGGGGSGIPPKIECLPIDISIDEGKVLTVASAFTGEPTPEVTWSTGGRKIHSQEQGRFHIENTDDSTTLTIKDVQKQDGGLYTLTLRNEFGSDSATVNIHIRSIDKTHTCPPCPAPELLGGPSVFLFPPKPKDTLMISRTPEVTCVVVDVSHEDPEVKFNWYVDGVEVHNAKTKPREEQYNSTYRVVSVLTVLHQDWLNGKEYKCKVSNKALPAPIEKTISKAKGQPREPQVCTLPPSREEMTKNQVSLSCAVKGFYPSDIAVEWESNGQPENNYKTTPPVLDSDGSFFLVSKLTVDKSRWQQGNVFSCSVMHEALHNHYTQKSLSLSPGK
light 2: DIQMTQSPSSLSASVGDRVTITCKSSQSLLYTSSQKNYLAWYQQKPGKAPKLLIYWASTRESGVPSRFSGSGSGTDFTLTISSLQPEDFATYYCQQYYAYPWTFGQGTKVEIKGGGGSSGAPRFLTRPKASVVSVGKDATLSCQIVGNPFPQVSWEKDKQPVTAGVRFRLAQDGDLYRLKILDLQLSDSGQYVCRARNAHGEAFACLGLQVDAEA
notes: Format 1: Zal.1 Fv on Ab10.1 Fab (knob) plus Omab Titin/Obscurin-substituted Fab (hole); four chains

EC50 (read off the curve) [6]: ~0.5 nM
Kd [4]: 7.56 nM
koff [4]: 0.000309 s⁻¹
kon [4]: 40800 M⁻¹ s⁻¹
fold affinity against Ab10 [7]: ≥ 4 fold
B2: Ab10.1 (antibody, V domains shown)
VH: QVQLVESGGGVVQPGRSLRLSCAASGFSLSDYGVHWVRQAPGKGLEWLAVIWSGGSTNYADAFVSRLTISKDNSKNTVYLQMNSLRAEDTAVYYCARNHDNPYIYAMDYWGQGTTVTVSS
VL: DIVLTQSPDSLAVSLGERATINCRADKSVSTSTYNYLHWYQQKPGQPPKLLIYRGSFLATGVPDRFSGSGSGTDFTLTISSLQAEDVAVYYCQHSRDLPPTFGQGTKLEIK
notes: CDR mutant of Ab10

EC50 (read off the curve) [6]: ~0.4 nM
B3: Omab (antibody, V domains shown)
VH: EVQLVESGGGLVQPGGSLRLSCAASGYTFTSYWLHWVRQAPGKGLEWVGMIDPSNSDTRFNPNFKDRFTISADTSKNTAYLQMNSLRAEDTAVYYCATYRSYVTPLDYWGQGTLVTVSS
VL: DIQMTQSPSSLSASVGDRVTITCKSSQSLLYTSSQKNYLAWYQQKPGKAPKLLIYWASTRESGVPSRFSGSGSGTDFTLTISSLQPEDFATYYCQQYYAYPWTFGQGTKVEIK
notes: anti-HGFR antibody (WO2013003680A1); also called onartuzumab

Kd [4]: 3.04 nM
B4: EM2 (bispecific antibody, human IgG1, kappa)
heavy 1: not shown
light 1: DIQMTQSPSSLSASVGDRVTITCKSSQSLLYTSSQKNYLAWYQQKPGKAPKLLIYWASTRESGVPSRFSGSGSGTDFTLTISSLQPEDFATYYCQQYYAYPWTFGQGTKVEIKRTVAAPSVFIFPPSDEQLKSGTASVVCLLNNFYPREAKVQWKVDNALQSGNSQESVTEQDSKDSTYSLSSTLTLSKADYEKHKVYACEVTHQGLSSPVTKSFNRGEC
heavy 2: QVQLVESGGGVVQPGRSLRLSCAASGFTFSTYGMHWVRQAPGKGLEWVAVIWDDGSYKYYGDSVKGRFTISRDNSKNTLYLQMNSLRAEDTAVYYCARDGITMVRGVMKDYFDYWGQGTLVTVSSGGGGSGIPPKIECLPIDISIDEGKVLTVASAFTGEPTPEVTWSTGGRKIHSQEQGRFHIENTDDSTTLTIKDVQKQDGGLYTLTLRNEFGSDSATVNIHIRSIDKTHTCPPCPAPELLGGPSVFLFPPKPKDTLMISRTPEVTCVVVDVSHEDPEVKFNWYVDGVEVHNAKTKPREEQYNSTYRVVSVLTVLHQDWLNGKEYKCKVSNKALPAPIEKTISKAKGQPREPQVCTLPPSREEMTKNQVSLSCAVKGFYPSDIAVEWESNGQPENNYKTTPPVLDSDGSFFLVSKLTVDKSRWQQGNVFSCSVMHEALHNHYTQKSLSLSPGK
light 2: DIQLTQSPSSLSASVGDRVTITCRASQDISSALVWYQQKPGKAPKLLIYDASSLESGVPSRFSGSESGTDFTLTISSLQPEDFATYYCQQFNSYPLTFGGGTKVEIKGGGGSSGAPRFLTRPKASVVSVGKDATLSCQIVGNPFPQVSWEKDKQPVTAGVRFRLAQDGDLYRLKILDLQLSDSGQYVCRARNAHGEAFACLGLQVDAEA
notes: Format 2: Omab Fab (knob) plus Zal.1 Titin/Obscurin-substituted Fab (hole); four chains
